Laboratory results as given in PMC8727134.

B1: WT2 (dsDNA)
DNA 1: AGCTCTGTGGTAGAAT
DNA 2: ATTCTACCACAGAGCT
B2: MT1 (dsDNA)
DNA 1: GAAAAATAACGTATGG
DNA 2: CCATACGTTATTTTTC
B3: MT2 (dsDNA)
DNA 1: AGCTCCGTTATAGAAT
DNA 2: ATTCTATAACGGAGCT

target: RUNX1 Runt domain (His6-RUNX1);CBFbeta (His6-CBFβ) (mouse;mouse, UniProt Q03347;Q08024 24-189;1-187, |); experiment: EMSA
Sequence (Q03347 24-189, chain 1 of 2): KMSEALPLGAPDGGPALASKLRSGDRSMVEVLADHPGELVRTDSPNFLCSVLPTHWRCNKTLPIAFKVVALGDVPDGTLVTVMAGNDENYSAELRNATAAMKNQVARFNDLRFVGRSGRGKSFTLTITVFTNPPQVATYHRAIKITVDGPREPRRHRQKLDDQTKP
Sequence (Q08024 whole entry, chain 2 of 2, the tested form may be a part): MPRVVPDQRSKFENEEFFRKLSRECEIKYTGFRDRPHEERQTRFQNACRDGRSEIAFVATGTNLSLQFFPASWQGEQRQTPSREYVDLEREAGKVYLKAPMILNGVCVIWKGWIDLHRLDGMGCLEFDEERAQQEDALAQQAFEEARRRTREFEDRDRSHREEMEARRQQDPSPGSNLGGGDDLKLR

Binding result, no binding:
B1, B2, B3
